T1: Pfs48/45 full-length ectodomain (Plasmodium falciparum, UniProt Q8I6T1 27-427)
T1 chain: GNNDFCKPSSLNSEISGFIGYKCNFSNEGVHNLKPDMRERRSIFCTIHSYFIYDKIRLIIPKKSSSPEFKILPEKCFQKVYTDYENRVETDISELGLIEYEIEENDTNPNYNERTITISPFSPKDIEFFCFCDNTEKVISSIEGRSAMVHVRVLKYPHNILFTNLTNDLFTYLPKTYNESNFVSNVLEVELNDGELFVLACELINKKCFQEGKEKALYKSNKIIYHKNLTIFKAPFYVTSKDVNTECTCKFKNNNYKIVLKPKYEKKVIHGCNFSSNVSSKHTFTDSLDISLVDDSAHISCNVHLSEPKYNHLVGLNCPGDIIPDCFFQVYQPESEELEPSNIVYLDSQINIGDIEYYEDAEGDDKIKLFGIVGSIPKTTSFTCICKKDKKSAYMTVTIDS


Experiments:
[1] = molecular target: T1, Pfs48/45 full-length ectodomain; experiment: SPR
[2] = molecular target: T1, Pfs48/45 full-length ectodomain; experiment: SPR

Row | Binder | koff [1] [s⁻¹] | Kd [2] [nM]
1 | 10D8 monoclonal antibody (antibody, V domains shown) VH: EVMLVESGGDLVKPGGSLKVSCAASGFTFSNYAMSWVRQTPEKRLEWVATISSGASYTHYPDSVKGRFTISRDNAKNTLYLQMSSLRSEDTAMYYCGRQVNRHDRALDAMDYWGQGTSVTVSP VL: not shown | 0.0027 | 35.8
2 | 32F3 monoclonal antibody (antibody, V domains shown) VH: DVKLVESGGGLVKLGGSLKLSCAASGFTFSSYYMSWVRQTPEKRLELVAAINNNGGSTYYPDTVKGRFTISRDNAKNTLNLQMNSLKSEDTALYYCTRQHYGNLYFFDYWGQGTTLTVSS VL: QIVLSQSPAILSASPGEKVTMTCRASSSVTYIHWYQQKPGSSPKPWIQATSSLASGVPARFSGSGSGTSYSLSISRVEAEDAATYYCQQWSSNPLTFGAGTKLELK | 0.000121 | 4.1
3 | 85RF45.1 monoclonal antibody (antibody, V domains shown) VH: EVQLVESGGGLLQPGRSLKLSCVASGFTFNNYWMSWIRQAPGKGLEWIASISNIGGTIYYPDSVKGRFTISRDSAQNTLYLQMNSLRSEDTATYYCTRDLRMSDYFDYWGQGVMVTVSS VL: QFVLSQPNSVSTNLGSTVKLSCKRSTGNIGSNYVSWYQHHEGRSPTTMIYRDDQRPDGVPDRFSGSIDRSSNSALLTIDNVQTEDEAAYFCHSYSTGMYIFGGGTKLTVL | – | 1.34

Reference: paper PMC9509318 (2022)
